target: human mpl receptor (c-Mpl, the TPO receptor) (human) (UniProt P40238); experiment: cell-based or functional assay

Binder	increase in potency as compared to the monomer (cell proliferation assay) [fold]	loss of activity against the equivalent GGGG-linked analog (cell proliferation assay) [fold]	potency as compared to the monomer (cell proliferation assay) [fold]
IEGPTLRQWLAARAIEGPTLRQWLAARA [TMP-(G)n-TMP, n = 0 (peptide 1)]	> 1000		
IEGPTLRQWLAARAGIEGPTLRQWLAARA [TMP-(G)n-TMP, n = 1 (peptide 2)]	> 1000		
IEGPTLRQWLAARAGGIEGPTLRQWLAARA [TMP-(G)n-TMP, n = 2 (peptide 3)]	> 1000		
IEGPTLRQWLAARAGGGIEGPTLRQWLAARA [TMP-(G)n-TMP, n = 3 (peptide 4)]	> 1000		
IEGPTLRQWLAARAGGGGIEGPTLRQWLAARA [TMP-(G)n-TMP, n = 4 (peptide 5)]	> 1000		
IEGPTLRQWLAARAGGGGGIEGPTLRQWLAARA [TMP-(G)n-TMP, n = 5 (peptide 6)]	> 1000		
IEGPTLRQWLAARAGGGGGGIEGPTLRQWLAARA [TMP-(G)n-TMP, n = 6 (peptide 7)]	> 1000		
IEGPTLRQWLAARAGGGGGGGIEGPTLRQWLAARA [TMP-(G)n-TMP, n = 7 (peptide 8)]	> 1000		
IEGPTLRQWLAARAGGGGGGGGIEGPTLRQWLAARA [TMP-(G)n-TMP, n = 8 (peptide 9)]	> 1000		
IEGPTLRQWLAARAGGGGGGGGGIEGPTLRQWLAARA [TMP-(G)n-TMP, n = 9 (peptide 10)]	> 1000		
IEGPTLRQWLAARAGGGGGGGGGGIEGPTLRQWLAARA [TMP-(G)n-TMP, n = 10 (peptide 11)]	> 1000		
IEGPTLRQWLAARAGGGGGGGGGGGGGGIEGPTLRQWLAARA [TMP-(G)n-TMP, n = 14 (peptide 12)]	> 1000		
IEGPTLRQWLAARAGPNGIEGPTLRQWLAARA [TMP-GPNG-TMP (peptide 13)]		> 10	100

Reference: patent US20040071712A1
